Data as given in patent US20130095127A1, “METHODS OF INHIBITING INFLAMMATION AND INFLAMMATORY DISEASES USING Gal-3BP (BTBD17B, LGALS3BP, GALECTIN-3 BINDING PROTEIN, MAC-2 BINDING PROTEIN)” (LA JOLLA INSTITUTE FOR ALLERGY AND IMMUNOLOGY, priority 2010, published 2013).

Experiments:
[1] = test system: microRNAs known to be transcriptional targets of NFAT; assay: microRNA expression in M0 macrophages after Gal-3BP (miRCURY LNA Array); type: cell-based; settings: Gal-3BP 10 ug/ml; human M0 macrophages; fold-change screen; FIG. 7
Protocol: The targets of NFAT signaling are largely cytokines, growth factors and their receptors, proteins involved in cell-cell interactions, as well as microRNAs (Crabtree and Schreiber, Cell, 138: 210 (2009)). To evaluate Gal-3BP's ability to induce NFAT signaling, microRNA expression in human M0 macrophages following Gal-3BP treatment was measured.
Human M0 macrophages were challenged with Gal-3BP (10 ug/ml), small RNAs were isolated and screened for microRNA expression using miRCURY™ Power Labeling Kit and hybridized on the miRCURY™ LNA Array (v.11.0). The samples were hybridized using a hybridization station and scanned using the Axon GenePix 4000B microarray scanner. GenePix pro V6.0 is used to extract the raw intensity of the image. Differentially expressed microRNAs were identified through fold-change screen. […] These microRNAs reflect increased NFAT activity via Gal-3BP.

[2] = test system: intracellular free Ca^2+ in human M0 macrophages; assay: Ca2+ mobilization in M0 macrophages, fluo-4 fluorescence microscopy; type: cell-based; settings: Gal-3BP 10 ug/ml; M0 macrophages loaded with 1 μM fluo-4; FIG. 4
Protocol: Human blood monocytes were cultured as described in Example 2 to produce MO macrophages, incubated with 1 μM fluo-4 for 30 minutes to quantify intracellular free Ca^2+ concentrations, and then triggered with Gal-3BP (10 ug/ml) with or without the PLC-γ inhibitor U73122 (10 nM). Thapsigargin (100 nM) served as positive control. Ca^2+ mobilization was assayed by fluorescence microscopy as previously described (Zanoni et al., Nature 460:264 (2009)). Each line is a measurement from a single cell (FIG. 4).

human macrophages = assay: Gal-3BP-induced IL-2 secretion in monocyte-derived macrophages (ELISA); type: cell-based
Protocol: (§1) Monocytes were isolated from peripheral blood of human healthy donors. Monocyte purity as assessed by flow cytometry for CD14 (clone HCD14, BioLegend, San Diego, Calif.) was routinely >97%. Monocytes were cultured for six days with M-CSF (100 ng/ml, Peprotech, Rocky Hill, N.J.) in macrophage serum-free medium (Gibco, Carlsbad, Calif.) supplemented with nutridoma SP (Roche, Nutley, N.J.), and penicillin/streptomycin (Sigma Aldrich).
(§2) Measurement of cytokines was carried out with Ready set Go ELISA kits (eBioscience).
(§3) Human blood monocytes were incubated with M-CSF (100 ng/ml) for 6 days to produce monocyte-derived macrophages (MO). These macrophages were incubated with interferon-γ (250 u/ml) for 1 day to produce M1 macrophages or with IL-4 (20 units/ml) to produce M2 macrophages or with PGE-2 (1 μM) to produce Mreg macrophages and then challenged with LPS (10 ng/ml) for another day or with Gal-3BP (10 μg/ml over 48 h).
Human blood monocytes were cultured as in (A) (*P=0.05, ***P<0.0001). These macrophages were incubated with Gal-3BP (0.1,1 and 10 μug/ml) for 6 hours and IL-2 was measured by ELISA. […] Human blood monocytes were cultured as in (A). These macrophages were incubated with Gal-3BP (10 μg/ml) or LPS (10 ng/ml) for 6 hours (***P<0.0001).

NFAT [3] = assay: Gal-3BP-induced IL-2 secretion with or without NFAT inhibitors (ELISA); type: cell-based, human; settings: Gal-3BP 10 μg/ml for the times indicated; FIG. 6A
Protocol: as §2
To determine if NFAT is required for Gal-3BP-induced IL-2 secretion, human blood monocytes were incubated with M-CSF (100 ng/ml) for 6 days to produce monocyte-derived macrophages (M0). […] Macrophages were alternatively treated with Gal-3BP (10 μg/ml) in the absence or presence of CSA (1 μM) or FK506 (1 μM), another known NFAT inhibitor (FIG. 6B). […] (P values are ***0.0004, **0.006 and *0.034)

[4] = test system: human monocyte-derived macrophages (M0); assay: Macrophage phenotype: IL-10, IL-2, IL-12 and IL-6 production (ELISA); type: cell-based; settings: Gal-3BP 10 μg/ml over 48 h
Protocol: as §1, §2
as §3, with “(M0).” for “(MO).”, “units/ml)” for “u/ml)”, “h). […] P values are indicated on the graphs.” for “h).”

NFAT [5] = assay: NFAT translocation to nucleus, immunofluorescence microscopy; type: cell-based, human; settings: Gal-3BP 10 μg/ml for 2 hours; M0 macrophages; FIG. 5
Protocol: Cells were fixed in formaldehyde 4%, 10-20 min, room temperature. Cells were then permeabilized in chilled methanol, 5-10 min, and −20° C. in and washed extensively with PBS, then blocked using 5% donkey serum in PBS. Primary antibody (Rabbit anti-NFATc2/NFATp (1:50, ImmunoGlobe), diluted in PBS with goat serum 10%) was applied over night in 4° C. Biotin anti-rabbit antibodies (1:200 Molecular Probes) were incubated for 1 hour. Streptavidin, (Alexa Fluor® 594 conjugate*2 mg/mL*Cat. No. S-32356) detection 1:1000 for 1 hour. DAPI (1:1,000, Sigma Aldrich) for 5 min at room temperature.
These macrophages were then incubated with Gal-3BP (10 μg/ml for 2 hours). Both samples were stained with DAPI (nuclear stain) and an antibody to NFAT (anti-NFAT c2/p IG 209, affinity purified rabbit antibody, ImmunoGlobe). Nuclear translocation was assessed by immunofluorescence microscopy (FIG. 5).

B1: Gal-3BP: Galectin-3 binding protein, a secreted 585 (murine 577) amino acid protein; human sequence SEQ ID NO:1 (protein, listed as Homo sapiens)
chain: MTPPRLFWVWLLVAGTQGVNDGDMRLADGGATNQGRVEIFYRGQWGTVCDNLWDLTDASVVCRALGFENATQALGRAAFGQGSGPIMLDEVQCTGTEASLADCKSLGWLKSNCRHERDAGVVCTNETRSTHTLDLSRELSEALGQIFDSQRGCDLSISVNVQGEDALGFCGHTVILTANLEAQALWKEPGSNVTMSVDAECVPMVRDLLRYFYSRRIDITLSSVKCFHKLASAYGARQLQGYCASLFAILLPQDPSFQMPLDLYAYAVATGDALLEKLCLQFLAWNFEALTQAEAWPSVPTDLLQLLLPRSDLAVPSELALLKAVDTWSWGERASHEEVEGLVEKIRFPMMLPEELFELQFNLSLYWSHEALFQKKTLQALEFHTVPFQLLARYKGLNLTEDTYKPRIYTSPTWSAFVTDSSWSARKSQLVYQSRRGPLVKYSSDYFQAPSDYRYYPYQSFQTPQHPSFLFQDKRVSWSLVYLPTIQSCWNYGFSCSSDELPVLGLTKSGGSDRTIAYENKALMLCEGLFVADVTDFEGWKAAIPSALDTNSSKSTSSFPCPAGHFNGFRTVIRPFYLTNSSGVD
Number of eight NFAT-target microRNAs significantly up-regulated [1]: five were significantly up-regulated | Ca^2+ mobilization [2]: triggers Ca^2+ mobilization | IL-2 production (human macrophages; Gal-3BP 10 μg/ml or LPS 10 ng/ml for 6 hours, FIG. 1C, P<0.0001): induces IL-2 production | IL-2 production (human macrophages; Gal-3BP 10 μg/ml over 48 h, standard ELISA, FIG. 1A, P=0.0003): induced production of IL-2 | IL-2 production, concentration dependence (human macrophages; Gal-3BP 0.1, 1 and 10 μg/ml for 6 hours, ELISA, FIG. 1B): concentration dependently induces IL-2 production | IL-2 secretion over time (NFAT [3]): induced secretion of IL-2 | IL-10 production ([4]; FIG. 2A): moderate IL-10 | IL-2 production ([4]; FIG. 2B): production of IL-2 | IL-12 production ([4]; FIG. 2C): no IL-12 | IL-6 production ([4]; FIG. 2D): little IL-6 | NFAT translocation to nucleus (NFAT [5]): induces NFAT translocation to nucleus
